Target: microtubules assembled from bovine brain tubulin (bovine) (UniProt Q6B856)
Experiment: co-sedimentation; 0.5 μM 4R-tau with increasing taxol-stabilized microtubules, 30 min at RT, BRB80-K (BRB80 + 50 mM KCl); 230,000 x g 15 min; tau in the pellet by densitometry of Coomassie gels; hyperbolic fit; apparent Kd

4R-tau (1N4R-tau), recombinant human tau containing four microtubule-binding sites (from UniProt P10636-7 1-412) (natural protein)
Kd: 280 nM
